Assay results published in article PMC6406907, “A H2AX–CARP-1 Interaction Regulates Apoptosis Signaling Following DNA Damage” (Cancers, 2019).

Experiments:
MDA-MB-468 cells = assay: MTT cell viability/growth inhibition, MDA-MB-468; assay type: cell-based, human; details: MDA-MB-468 CARP-1 (Δ600–650) vs WT CARP-1-expressing counterparts, MTT, mean of three experiments
Experimental: (§1) Routine maintenance and culture of MDA-MB-468 (lacking estrogen receptor; ER and having mutant p53) human triple-negative breast cancer (TNBC) cells, human cervical cancer HeLa, human kidney cancer UOK 262, non-small-cell lung cancer H1975, and HCC827 cells was carried out essentially as described previously. Generation and characterization of MDA-MB-468 cells expressing reduced CARP-1 was described previously. The stable sublines were generated by transfecting the MDA-MB-468 and Hela cells with the pcDNA3 vector, pcDNA3-CARP-1 wild-type (WT)-myc-His clone 6.1.2, pcDNA3-CARP-1(Δ600–650)-myc-His, pcDNA3-EGFP, pcDNA3-EGFP-H2AX (1–35), or pcDNA3-EGFP-CARP-1 (636–650) plasmids, followed by selection in the presence of 800 μg/mL neomycin using described methods. The cell lysates from wild-type, untransfected cells, neomycin-resistant pools, or individual sublines were then subjected to MTT-based viability, confocal, immunoprecipitation (IP), and Western blot (WB) analyses as below.
(§2) The cell growth inhibition was assessed using an MTT assay following the established protocols described by us previously.
(§3) Here, we utilized human TNBC MDA-MB-468 and human cervical cancer HeLa cells to conduct an MTT-based dose-response analysis using Adriamycin and CFM compounds. […] Since Adriamycin, CFM-4, and CFM-4.16 have molecular masses of 543.3, 404.9, and 440.3, respectively, we chose to use an equimolar dose of each compound in the MTT assays. […] Prior reports established that phosphorylation of H2AX at serine 139 (γ-H2AX) is involved in DNA damage repair and apoptotic signaling by ATM/ATR and JNKs, respectively. Next, the MDA-MB-468, HeLa, and the kidney cancer UOK 262 cells were treated with a 10 μM dose of the CFM-4.16 or Adriamycin for various time periods. The cell lysates from the control, untreated, and treated cells were analyzed by WB for expression of CARP-1, phospho-JNK1/2, phospho-H2AX, and poly ADP ribose polymerase (PARP) proteins. […] The H2AX activation is also indicative of DNA damage and involves pro-apoptotic JNKs. Our data in Figure 1C and Figure S1B,C (Supplementary Materials) also show activation of JNKs; however, a robust JNK activation is co-incident with H2AX phosphorylation following treatments with Adriamycin or CFM-4.16.
Figure 7 Disruption of H2AX interaction with CARP-1 results in enhanced viabilities of CFM-4-, CFM-4.16-, or Adriamycin-treated cells in part due to reduced apoptosis. (A,C,D) Indicated MDA-MB-468 cell lines were treated with DMSO (Control), or with the noted dose and time of Adriamycin, CFM-4, or CFM-4.16 compounds. Determination of viable/live cells was carried out by MTT assay as described in Section 2. (B,E,F) Cell lysates derived from vehicle DMSO (Control), or CFM-4-, CFM-4.16-, or Adriamycin-treated cells were added to the wells that had immobilized fluorogenic substrates of noted caspases. The fluorescence released from the activated caspase-dependent cleavage of respective substrate was detected by a plate reader at the excitation and emission wavelengths of 380 nm and 460 nm, respectively, as detailed in Section 2. The columns in bar charts in panels A, C, D and B, […] represent means of three and two independent experiments, respectively; bars, SE. For panels C and D, * p < 0.05, **p < 0.01 and *** p ≤ 0.001 relative to the respective EGFP vector subline. For panels E and F, *** p ≤ 0.05 relative to the respective EGFP vector subline.
Figure 8 Ectopic expression of TAT-CARP-1 (636–650) peptide results in enhanced viabilities of Adriamycin-treated cells. MDA-MB-468 (A) or HeLa (B) cells were pre-incubated with 300 μg/mL indicated peptides for 72 h, followed by treatments with the noted dose and time of Adriamycin. Determination of viable/live cells was carried out using an MTT assay as described in Section 2. […]

HeLa cells = assay: MTT cell viability/growth inhibition, HeLa; assay type: cell-based, human; details: HeLa CARP-1 (Δ600–650) vs WT CARP-1-expressing counterparts, mean of three experiments
Experimental: as §1, §2, §3
Figure 8 Ectopic expression of TAT-CARP-1 (636–650) peptide results in enhanced viabilities of Adriamycin-treated cells. MDA-MB-468 (A) or HeLa (B) cells were pre-incubated with 300 μg/mL indicated peptides for 72 h, followed by treatments with the noted dose and time of Adriamycin. Determination of viable/live cells was carried out using an MTT assay as described in Section 2. The bar charts in panels A and B represent means of three and two independent experiments, respectively; bars, SE. (C) Indicated cells were either pre-incubated with 6 μg/mL indicated peptides for 72 h or not (Control), followed by treatments with Adriamycin as noted. Cells were then processed for immunofluorescence staining for TAT-CARP-1 peptide (red), γH2AX (green), and DAPI (blue) as detailed in Section 2 and Figure S3 (Supplementary Materials). Insets in C show enlarged areas of respective photomicrographs to indicate presence of TAT-CARP-1 peptide and γH2AX in respective columns. The insets in the top and middle rows of the merge column show co-localization of TAT-CARP-1 peptide, and γH2AX (magnification: 250×).
Figure S7. Disruption of H2AX interaction with CARP-1 results in enhanced viabilities of CFM-4, CFM-4.16, or Adriamycin-treated cells in part due to reduced γH2AX and apoptosis. (A,B,C) Indicated HeLa cell lines were treated with DMSO (Control), noted dose and time of Adriamycin, CFM-4, or CFM-4.16 compounds. Determination of viable/live cells was carried out by MTT assay as in methods. The columns in bar charts in panels A, B, C represent means of three independent […]
experiments; bars, SE. […]

[1] = molecular target: CARP-1 (636–650) peptide, biotin-labelled (human) (UniProt Q8IX12); assay: SPR; SPRi (PlexArray HT); CARP-1 (636–650) peptide printed on bare gold-coated PlexArray Nanocapture chip, blocked with 5% non-fat milk; PBST pH 7.4, 25 °C; global fit to a 1:1 interaction model
Gst-H2AX = assay: Gst-pulldown with Gst-H2AX; assay type: binding, human; details: E. coli-expressed, 4 °C, 2 h, WB anti-HA, Figure 5A
Experimental: Logarithmically growing cells were either untreated or treated with different agents for various time periods. The cells were lysed to prepare protein extracts. IP was carried out by incubating approximately 1 mg of the protein lysate with appropriate antibodies. The immunoprecipitates were then analyzed by SDS-PAGE, followed by WB with respective, interacting protein. For Gst-pulldown, Gst-H2AX or various His-TAT-HA-tagged CARP-1 peptides were generated in Escherichia coli (E. coli) BL21 cells essentially as described by us previously. Briefly, the competent E. coli BL-21 (DE3) pLysS cells were transformed separately with various recombinant pGEX-4T-1 or pTAT-HA constructs. The transformed cells were then subjected to selection by combined presence of ampicillin and chloramphenicol; various isolates for each transformation were obtained and bacterial lysates were characterized for expression of fusion peptides. Cells from each isolate were grown in 4 mL of LB medium containing ampicillin only until the optical density (OD)600 reached 0.4–0.8. Expression of fusion peptides was induced over 2–4 h incubation periods after Isopropyl β-D-1-thiogalactopyranoside (IPTG) addition. The cells were harvested, and pellets were stored at −80 °C overnight. […]

Q: Which results are given for `O=C1N(Cc2ccccc2Cl)c2ccccc2C12NN=C(c1ccccc1)S2` (stereo not drawn) [CFM-4]?
A: growth inhibition of CARP-1 (Δ600–650)-expressing cells (MDA-MB-468 cells): resistant to inhibition by CFM-4 or ADR; growth inhibition of CARP-1 (Δ600–650)-expressing cells (HeLa cells): resistant to inhibition by CFM-4 or ADR

Q: Which Kd [1] does the source give for “H2AX (1–35) peptide (from UniProt P16104 1-35)” here?
A: The Kd was 0.126 µM.

Q: What about the koff [1] of the same molecule?
A: The koff was 0.000292 s⁻¹.

Q: What about the kon [1] of the same molecule?
A: Its kon is 2320 M⁻¹ s⁻¹.

B1: His-TAT-HA-CARP-1 (552–654): E. coli-expressed His-TAT-HA-tagged CARP-1 peptide (peptide)
chain: RPEETHKGRTVPAHVETVVLFFPDVWHCLPTRSEWETLSRGYKQQLVEKLQGERKEADGEQDEEEKDDGEAKEISTPTHWSKLDPKTMKVNDLRKELESRALS
modifications: left off: His, end not stated, kept | TAT, end not stated, kept | HA, end not stated, kept
notes: E. coli-expressed His-TAT-HA-tagged CARP-1 peptide
Q: B1 was tested. Which “binding with Gst-H2AX protein” value (Gst-H2AX) did it give?
A: Its value is “bound with Gst-H2AX protein”.
